Measurements published in patent publication US20040191271A1 (Pfizer, published 2004).

Target: the molecule itself
Assay: size exclusion chromatography (Superdex 200), self-association of identical subunits

B1: Streptococcus pneumoniae undecaprenyl pyrophosphate synthase (enzyme)
chain: AVEVEVPTQVPAHIGIIMDGNGRWAKKRMQPRVFGHKAGMEALQTVTKAANKLGVKVITVYAFSTENWTRPDQEVKFIMNLPVEFYDNYVPELHANNVKIQMIGETDRLPKQTFEALTKAEELTKNNTGLILNFALNYGGRAEITQALKLISQDVLDAKINPGDITEELIGNYLFTQHLPKDLRDPDLIIRTSGELRLSNFLPWQGAYSELYFTDTLWPDFDEAALQEAILAYNRRHRRFGGV
notes: Homodimer of two identical subunits; Thrombin removed the tag before size exclusion and crystallization; also called UPS; UppS
binding result: binds
